# Reference: US12295987B2, “Method of using a GIP/GLP1 co-agonist for diabetes” (Eli Lilly and Company, priority 2018, dated 2025)
# Numbered stars: 1 amine (or outer) side, 2 acyl side, 3 side chain; on linkers, the order of the positions; unused ones are H or OH. Square brackets hold non-standard residues; d marks the D form. Side chains are listed from the residue outwards. Ends that are not written are not given here. * marks the point of attachment. C20 diacid = O=C(O)CCCCCCCCCCCCCCCCCCC(=O)*; C18 diacid = O=C(O)CCCCCCCCCCCCCCCCC(=O)*; αMePhe(2-F) = C[C@](N)(Cc1ccccc1F)C(=O)O; γGlu = O=C(O)[C@H](CCC(=O)[*:2])N[*:1]; αMeL = CC(C)C[C@](C)(N)C(=O)O; AEEA = NCCOCCOCC(=O)O; Aib = CC(C)(N)C(=O)O
# Biological target: T1, human gastric inhibitory peptide receptor (hGIPR) (Homo sapiens, UniProt P48546)
# T1 construct: expressed in transfected cells; host or cells: HEK293
# T1 sequence (P48546 22-466): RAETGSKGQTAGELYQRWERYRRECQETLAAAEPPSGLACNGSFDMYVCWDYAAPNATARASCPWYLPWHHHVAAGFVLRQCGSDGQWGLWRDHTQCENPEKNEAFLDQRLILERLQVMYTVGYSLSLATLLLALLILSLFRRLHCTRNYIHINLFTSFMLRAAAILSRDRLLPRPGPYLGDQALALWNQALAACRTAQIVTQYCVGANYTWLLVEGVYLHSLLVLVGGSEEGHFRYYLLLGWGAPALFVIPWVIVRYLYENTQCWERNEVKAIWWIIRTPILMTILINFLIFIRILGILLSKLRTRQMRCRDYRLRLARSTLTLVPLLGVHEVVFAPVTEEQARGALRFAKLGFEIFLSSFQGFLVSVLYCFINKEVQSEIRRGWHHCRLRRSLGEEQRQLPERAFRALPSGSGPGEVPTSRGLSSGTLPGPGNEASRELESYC
# Experiment: cAMP pharmacological functional assay in presence of 0.1% casein, hGIPR
# Type: cell-based
# Conditions: ratio of hGIPR to hGLP1R cAMP EC50 ratios
row,Substance,[hGIPR/hGLP1R] EC50 Ratio
1,Y-Pro-EGTFTSDYSILLDKK((2-[2-(2-Amino-ethoxy)-ethoxy]-acetyl)2-(γGlu)-CO—(CH2)18—CO2H)AQ-Aib-AFIEYLIEGGPSSGAPPPS-NH2 (YPEGTFTSDYSILLDKK([AEEA-AEEA-γGlu-C20 diacid])AQ[Aib]AFIEYLIEGGPSSGAPPPS-NH2; N-terminus assumed; SMILES CC[C@H](C)[C@H](NC(=O)[C@H](CC(C)C)NC(=O)[C@H](Cc1ccc(O)cc1)NC(=O)[C@H](CCC(=O)O)NC(=O)[C@@H](NC(=O)[C@H](Cc1ccccc1)NC(=O)[C@H](C)NC(=O)C(C)(C)NC(=O)[C@H](CCC(N)=O)NC(=O)[C@H](C)NC(=O)[C@H](CCCCNC(=O)COCCOCCNC(=O)COCCOCCNC(=O)CC[C@H](NC(=O)CCCCCCCCCCCCCCCCCCC(=O)O)C(=O)O)NC(=O)[C@H](CCCCN)NC(=O)[C@H](CC(=O)O)NC(=O)[C@H](CC(C)C)NC(=O)[C@H](CC(C)C)NC(=O)[C@@H](NC(=O)[C@H](CO)NC(=O)[C@H](Cc1ccc(O)cc1)NC(=O)[C@H](CC(=O)O)NC(=O)[C@H](CO)NC(=O)[C@@H](NC(=O)[C@H](Cc1ccccc1)NC(=O)[C@@H](NC(=O)CNC(=O)[C@H](CCC(=O)O)NC(=O)[C@@H]1CCCN1C(=O)[C@@H](N)Cc1ccc(O)cc1)[C@@H](C)O)[C@@H](C)O)[C@@H](C)CC)[C@@H](C)CC)C(=O)N[C@@H](CCC(=O)O)C(=O)NCC(=O)NCC(=O)N1CCC[C@H]1C(=O)N[C@@H](CO)C(=O)N[C@@H](CO)C(=O)NCC(=O)N[C@@H](C)C(=O)N1CCC[C@H]1C(=O)N1CCC[C@H]1C(=O)N1CCC[C@H]1C(=O)N[C@@H](CO)C(N)=O) [Peptide 88],4.27
2,"Y-Aib-EGT-αMeF(2F)-TSD-4Pal-SI-αMeL-LDEK((2-[2-(2-Amino-ethoxy)-ethoxy]-acetyl)2-(γGlu)-CO—(CH2)16—CO2H)AQ-Aib-EFI-(D-Glu)-YLIEGGPSSGAPPPS-NH2 (YXEGTXTSDXSIXLDEKAQXEFIXYLIEGGPSSGAPPPS; Aib, αMeF(2F), 4Pal, αMeL, D-Glu; lipidated K; amide; (2)..(2) Xaa at position 2 is Aib; (6)..(6) Xaa at position 6 is alpha-methyl-Phe(2F); (10)..(10) Xaa at position 10 is 4Pal; (13)..(13) Xaa at position 13 is alpha-methyl-Leu; MOD_RES (17)..(17) Lys at position 17 is chemically modified by conjugation of the epsilon-amino group of the Lys side chain with (2-[2-(2-amino-ethoxy)-ethoxy]-acetyl)2-(gamma-Glu)-CO-(CH2)16- CO2H; (20)..(20) Xaa at posit) [Peptide 204]",6.65
3,Y-Aib-EGT-αMeF(2F)-TSDHSI-αMeL-LDEK((2-[2-(2-Amino-ethoxy)-ethoxy]-acetyl)2-(γGlu)-CO—(CH2)16—CO2H)AQ-Aib-HFI-(D-Glu)-YLIEGG-NH2 (Y[Aib]EGT[αMePhe(2-F)]TSDHSI[αMeL]LDEK([AEEA-AEEA-γGlu-C18 diacid])AQ[Aib]HFI[dE]YLIEGG-NH2; N-terminus assumed; SMILES CC[C@H](C)[C@H](NC(=O)[C@H](CC(C)C)NC(=O)[C@H](Cc1ccc(O)cc1)NC(=O)[C@@H](CCC(=O)O)NC(=O)[C@@H](NC(=O)[C@H](Cc1ccccc1)NC(=O)[C@H](Cc1c[nH]cn1)NC(=O)C(C)(C)NC(=O)[C@H](CCC(N)=O)NC(=O)[C@H](C)NC(=O)[C@H](CCCCNC(=O)COCCOCCNC(=O)COCCOCCNC(=O)CC[C@H](NC(=O)CCCCCCCCCCCCCCCCC(=O)O)C(=O)O)NC(=O)[C@H](CCC(=O)O)NC(=O)[C@H](CC(=O)O)NC(=O)[C@H](CC(C)C)NC(=O)[C@](C)(CC(C)C)NC(=O)[C@@H](NC(=O)[C@H](CO)NC(=O)[C@H](Cc1c[nH]cn1)NC(=O)[C@H](CC(=O)O)NC(=O)[C@H](CO)NC(=O)[C@@H](NC(=O)[C@](C)(Cc1ccccc1F)NC(=O)[C@@H](NC(=O)CNC(=O)[C@H](CCC(=O)O)NC(=O)C(C)(C)NC(=O)[C@@H](N)Cc1ccc(O)cc1)[C@@H](C)O)[C@@H](C)O)[C@@H](C)CC)[C@@H](C)CC)C(=O)N[C@@H](CCC(=O)O)C(=O)NCC(=O)NCC(N)=O) [Peptide 180],6.27
4,"Y-Aib-EGT-αMeF(2F)-TSDYSI-Nle-LD-Orn-K((2-[2-(2-Amino-ethoxy)-ethoxy]-acetyl)2-(γGlu)-CO—(CH2)16—CO2H)AQ-Aib-EFI-(D-Glu)-YLIEGGPSSGAPPPS-NH2 (YXEGTXTSDYSIXLDXKAQXEFIXYLIEGGPSSGAPPPS; Aib, Nle, Orn, αMeF(2F), lipidated Lys, D-Glu, amide; (2)..(2) Xaa at position 2 is Aib; (6)..(6) Xaa at position 6 is alpha-methyl-Phe(2F); (13)..(13) Xaa at position 13 is Nle; (16)..(16) Xaa at position 16 is Orn; MOD_RES (17)..(17) Lys at position 17 is chemically modified by conjugation of the epsilon-amino group of the Lys side chain with (2-[2-(2-amino-ethoxy)-ethoxy]-acetyl)2-(gamma-Glu)-CO-(CH2)16- CO2H; (20)..(20) Xaa at position 20 is Aib;) [Peptide 249]",4.94
5,"Y-Aib-EGT-αMeF(2F)-TSDYSI-αMeL-LDKK((2-[2-(2-Amino-ethoxy)-ethoxy]-acetyl)2-(γGlu)-CO—(CH2)18—CO2H)AQ-Aib-EFI-(D-Glu)-YLIEGGPSSGAPPPS-NH2 (YXEGTXTSDYSIXLDKKAQXEFIXYLIEGGPSSGAPPPS; Aib, αMeF(2F), αMeL, D-Glu; lipidated K; amide; (2)..(2) Xaa at position 2 is Aib; (6)..(6) Xaa at position 6 is alpha-methyl-Phe(2F); (13)..(13) Xaa at position 13 is alpha-methyl-Leu; MOD_RES (17)..(17) Lys at position 17 is chemically modified by conjugation of the epsilon-amino group of the Lys side chain with (2-[2-(2-amino-ethoxy)-ethoxy]-acetyl)2-(gamma-Glu)-CO-(CH2)18- CO2H; (20)..(20) Xaa at position 20 is Aib; (24)..(24) Xaa at positi) [Peptide 212]",5.41
6,"Y-Aib-EGT-αMeF(2F)-TSDYSI-αMeL-LDEK((2-[2-(2-Amino-ethoxy)-ethoxy]-acetyl)2-CO—(CH2)18—CO2H)AQ-Aib-EFI-(D-Glu)-YLIEGGPSSGAPPPS-NH2 (YXEGTXTSDYSIXLDEKAQXEFIXYLIEGGPSSGAPPPS; Aib, αMeF(2F), αMeL, D-Glu; lipidated K; amide; (2)..(2) Xaa at position 2 is Aib; (6)..(6) Xaa at position 6 is alpha-methyl-Phe(2F); (13)..(13) Xaa at position 13 is alpha-methyl-Leu; MOD_RES (17)..(17) Lys at position 17 is chemically modified by conjugation of the epsilon-amino group of the Lys side chain with (2-[2-(2-amino-ethoxy)-ethoxy]-acetyl)2-CO-(CH2)18-CO2H; (20)..(20) Xaa at position 20 is Aib; (24)..(24) Xaa at position 24 is D-Gl) [Peptide 215]",4.34
7,Y-Aib-EGT-αMeF(2F)-TSDHSI-αMeL-LDEK((2-[2-(2-Amino-ethoxy)-ethoxy]-acetyl)2-(γGlu)-CO—(CH2)18—CO2H)AQ-Aib-TFI-(D-Glu)-YLIEGGPSSG-NH2 (Y[Aib]EGT[αMePhe(2-F)]TSDHSI[αMeL]LDEK([AEEA-AEEA-γGlu-C20 diacid])AQ[Aib]TFI[dE]YLIEGGPSSG-NH2; N-terminus assumed; SMILES CC[C@H](C)[C@H](NC(=O)[C@H](CC(C)C)NC(=O)[C@H](Cc1ccc(O)cc1)NC(=O)[C@@H](CCC(=O)O)NC(=O)[C@@H](NC(=O)[C@H](Cc1ccccc1)NC(=O)[C@@H](NC(=O)C(C)(C)NC(=O)[C@H](CCC(N)=O)NC(=O)[C@H](C)NC(=O)[C@H](CCCCNC(=O)COCCOCCNC(=O)COCCOCCNC(=O)CC[C@H](NC(=O)CCCCCCCCCCCCCCCCCCC(=O)O)C(=O)O)NC(=O)[C@H](CCC(=O)O)NC(=O)[C@H](CC(=O)O)NC(=O)[C@H](CC(C)C)NC(=O)[C@](C)(CC(C)C)NC(=O)[C@@H](NC(=O)[C@H](CO)NC(=O)[C@H](Cc1c[nH]cn1)NC(=O)[C@H](CC(=O)O)NC(=O)[C@H](CO)NC(=O)[C@@H](NC(=O)[C@](C)(Cc1ccccc1F)NC(=O)[C@@H](NC(=O)CNC(=O)[C@H](CCC(=O)O)NC(=O)C(C)(C)NC(=O)[C@@H](N)Cc1ccc(O)cc1)[C@@H](C)O)[C@@H](C)O)[C@@H](C)CC)[C@@H](C)O)[C@@H](C)CC)C(=O)N[C@@H](CCC(=O)O)C(=O)NCC(=O)NCC(=O)N1CCC[C@H]1C(=O)N[C@@H](CO)C(=O)N[C@@H](CO)C(=O)NCC(N)=O) [Peptide 167],5.98
8,"Y-Aib-EGTFTSDYSI-αMeL-LDEK((2-[2-(2-Amino-ethoxy)-ethoxy]-acetyl)2-(γGlu)-CO—(CH2)18—CO2H)AQ-Aib-AFIEYLLEGGPSSGAPPPS-NH2 (YXEGTFTSDYSIXLDEKAQXAFIEYLLEGGPSSGAPPPS; Aib, αMeL, lipidated Lys, C-terminal amide; (2)..(2) Xaa at position 2 is Aib; (13)..(13) Xaa at position 13 is alpha-methyl-Leu; MOD_RES (17)..(17) Lys at position 17 is chemically modified by conjugation of the epsilon-amino group of the Lys side chain with (2-[2-(2-amino-ethoxy)-ethoxy]-acetyl)2-(gamma-Glu)-CO-(CH2)18- CO2H; (20)..(20) Xaa at position 20 is Aib; MOD_RES (39)..(39) Ser at position 39 is amidated) [Peptide 66]",7.41
